Assay results: PMC10192418 (2023)
Ends that are not written are not given here. FAM = 5(6)-carboxyfluorescein (N-terminal)

B1: B-RCAL (BÜHLMANN recombinant calprotectin; His6-linker-S100A9-linker-S100A8) (complex)
chain: MTCKMSQLERNIETIINTFHQYSVKLGHPDTLNQGEFKELVRKDLQNFLKKENKNEKVIEHIMEDLDTNADKQLSFEEFIMLMARLTWASHEKMHEGDEGPGHHHKPGLGEGTPLEVLFQGPMLTELEKALNSIIDVYHKYSLIKGNFHAVYRDDLKKLLETECPQYIRKKGADVWFKELDINTDGAVNFQEFLILVIKMGVAAHKKSHEESHKE

Assays:
Peptide 2 [1] = experiment: SPR
Peptide 7 [2] = experiment: SPR
Peptide 3 = experiment: SPR
Peptide 6 [3] = experiment: SPR
Peptide 4 [4] = experiment: SPR
Peptide 1 [5] = experiment: SPR
Peptide 5 = experiment: FP; Ca2+
Peptide 2 [6] = experiment: FP; Ca2+
Peptide 7 [7] = experiment: FP; Ca2+
Peptide 6 [8] = experiment: FP; Ca2+
Peptide 4 [9] = experiment: FP; Ca2+
Peptide 1 [10] = experiment: FP; Ca2+
Peptide 8 = experiment: FP; calcium (tetramer)
Peptide 10 = experiment: FP; calcium (tetramer)
Peptide 13 = experiment: FP; calcium (tetramer)
Peptide 11 = experiment: FP; calcium (tetramer)
Peptide 9 = experiment: FP; calcium (tetramer)
Peptide 12 = experiment: FP; calcium (tetramer)
[11] = target: B1; experiment: SPR

B1
Kd (Peptide 2 [1]): 400 nM
Kd (Peptide 7 [2]): 840 nM
Kd (Peptide 3): 340 nM
Kd (Peptide 6 [3]): 310 nM
Kd (Peptide 4 [4]): 1100 nM
Kd (Peptide 1 [5]): 1220 nM
Kd (Peptide 5): 55 nM
Kd (Peptide 2 [6]): 22 nM
Kd (Peptide 7 [7]): 25 nM
Kd (Peptide 6 [8]): 10 nM
Kd (Peptide 4 [9]): 34 nM
Kd (Peptide 1 [10]): 38 nM
Kd (Peptide 8): 89 nM
Kd (Peptide 10): 190 µM
Kd (Peptide 13): 154 µM
Kd (Peptide 11): 42 µM
Kd (Peptide 9): 29 µM
Kd (Peptide 12): 37 µM

{FAM}-RSPESVAFPMFQSHWYSG [linear peptide 3]
Kd [11]: 46 nM

Fluorescein-RCPECVAFPMFQCHWYCG (not fully specified (bridges); also: disulfide pairing not given here) [peptide 3 isomer 3]
Kd [11]: 270 nM

Fluorescein-RCPECVAFPMFQCHWYCG (not fully specified (bridges); also: disulfide pairing not given here) [peptide 3 isomer 2]
Kd [11]: 500 nM
